This assay addresses VHL (VHL/ElonginB/ElonginC, VCB) as used in solution (UniProt P40337 1-213; Q15370 1-104; Q15369 17-112). Nature of the assay: FP; MZ1 ternary.

VHL (VHL/ElonginB/ElonginC, VCB) as used in solution, sequence (P40337 whole entry, chain 1 of 3): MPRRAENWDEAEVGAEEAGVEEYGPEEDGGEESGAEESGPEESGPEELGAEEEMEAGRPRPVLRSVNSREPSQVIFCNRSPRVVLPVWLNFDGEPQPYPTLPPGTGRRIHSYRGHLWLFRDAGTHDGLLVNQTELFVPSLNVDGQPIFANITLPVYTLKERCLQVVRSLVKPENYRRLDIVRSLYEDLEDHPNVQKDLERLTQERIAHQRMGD
VHL (VHL/ElonginB/ElonginC, VCB) as used in solution, sequence (Q15370 1-104, chain 2 of 3): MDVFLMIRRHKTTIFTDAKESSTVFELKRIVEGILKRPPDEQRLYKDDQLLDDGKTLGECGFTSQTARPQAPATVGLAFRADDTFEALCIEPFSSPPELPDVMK
VHL (VHL/ElonginB/ElonginC, VCB) as used in solution, sequence (Q15369 17-112, chain 3 of 3): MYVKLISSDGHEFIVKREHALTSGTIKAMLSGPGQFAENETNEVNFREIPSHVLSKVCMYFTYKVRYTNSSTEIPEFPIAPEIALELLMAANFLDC

B1: Brd2^BD2 with the G-to-E point mutation at Gly382 (domain or fragment)
chain: GKLSEQLKHCNGILKELLSKKHAAYAWPFYKPVDASALELHDYHDIIKHPMDLSTVKRKMENRDYRDAQEFAADVRLMFSNCYKYNPPDHDVVAMARKLQDVFEFRYAKMPD
For the molecule B1, the Ki is 6 nM.

For the origin of these results see publication PMC6423499 (2019).
